The Km is the substrate concentration at which the rate is half of its maximum. As usually defined, the kcat is the number of substrate molecules converted per active site and unit of time at saturation. The term kcat/Km denotes the turnover number divided by the Michaelis constant. Broadly, the stoichiometry N is a count of units in the complex or per binding partner.

Substrate in the data set “purified protein”: O=C(O)C(=O)O
The data set is described as follows: purified protein. The conditions noted are these: buffer and temperature same.

The data set “SEC” deals with the molecule itself. The data set can be described thus: SEC. Background: SEC sorts molecules by how far they enter the pores of the column.

Where a chain is given by its changes, count along the chain named. Numbers in names are those of the source. Where “and” joins values, the source holds several entries; their conditions need not be identical. Identical values can stand only once.

B1: OxDC (oxalate decarboxylase) (Bacillus subtilis subsp. subtilis str. 168; E101Q/E280Q) (protein)
chain: MKKQNDIPQPIRGDKGATVKIPRNIERDRQNPDMLVPPETDHGTVSNMKFSFSDTHNRLEKGGYAREVTVRELPISENLASVNMRLKPGAIRELHWHKEAQWAYMIYGSARVTIVDEKGRSFIDDVGEGDLWYFPSGLPHSIQALEEGAEFLLVFDDGSFSENSTFQLTDWLAHTPKEVIAANFGVTKEEISNLPGKEKYIFENQLPGSLKDDIVEGPNGEVPYPFTYRLLEQEPIESEGGKVYIADSTNFKVSKTIASALVTVEPGAMRELHWHPNTHQWQYYISGKARMTVFASDGHARTFNYQAGDVGYVPFAMGHYVENIGDEPLVFLEIFKDDHYADVSLNQWLAMLPETFVQAHLDLGKDFTDVLSKEKHPVVKKKCSK
On to B1, for which, in the data set “purified protein” (0.07 Mn/monomer), the Km was determined as 2.9 ± 0.3 mM, the catalytic constant (kcat) worked out at 0.012 ± 0.0003 s⁻¹ and the catalytic efficiency (kcat/Km) stood at 4 M⁻¹ s⁻¹.

B2: OxDC (oxalate decarboxylase) (Bacillus subtilis subsp. subtilis str. 168; E101Q) (protein)
chain: B1 chain with Q280E
In the case of B2, in “purified protein” (0.11 Mn/monomer), the Michaelis constant (Km) worked out at 4.0 ± 0.2 mM, the kcat was 0.62 ± 0.01 s⁻¹ and the kcat/Km was 155 M⁻¹ s⁻¹.

B3: recombinant, wild-type Bacillus subtilis oxalate decarboxylase (enzyme, UniProt O34714 1-385, looked up)
chain: B1 chain with Q101E, Q280E
On to B3, for which the “stoichiometry N” value in “SEC” is 6 and 12 monomers to 18 monomers (2×).

B4: OxDC (oxalate decarboxylase) (Bacillus subtilis subsp. subtilis str. 168; E101A) (protein)
chain: B1 chain with Q101A, Q280E
In the case of B4, in “purified protein” (0.18 Mn/monomer), the Km is 2.9 ± 0.3 mM, the kcat amounted to 0.046 ± 0.002 s⁻¹ and the catalytic efficiency (kcat/Km) is 16 M⁻¹ s⁻¹.

B5: OxDC (oxalate decarboxylase) (Bacillus subtilis subsp. subtilis str. 168; E101D) (protein)
chain: B1 chain with Q101D, Q280E
Regarding B5, in “purified protein” (0.09 Mn/monomer), the Km came to 3.4 ± 0.1 mM, the kcat came to 0.49 ± 0.01 s⁻¹ and the kcat/Km came to 144 M⁻¹ s⁻¹.

B6: OxDC (oxalate decarboxylase) (Bacillus subtilis subsp. subtilis str. 168; E280A) (protein)
chain: B1 chain with Q101E, Q280A
For the protein B6, in the data set “purified protein” (0.67 Mn/monomer), the Km was 3.0 ± 0.2 mM, the catalytic constant (kcat) worked out at 0.019 ± 0.001 s⁻¹ and the kcat/Km worked out at 6 M⁻¹ s⁻¹.

B7: OxDC (oxalate decarboxylase) (Bacillus subtilis subsp. subtilis str. 168; E280D) (protein)
chain: B1 chain with Q101E, Q280D
For B7, in the data set “purified protein” (0.64 Mn/monomer), the Km was 5.4 ± 0.4 mM, the kcat amounted to 0.14 ± 0.01 s⁻¹ and the kcat/Km stood at 26 M⁻¹ s⁻¹.

B8: OxDC (oxalate decarboxylase) (Bacillus subtilis subsp. subtilis str. 168; E280Q) (protein)
chain: B1 chain with Q101E
For the protein B8, in the data set “purified protein” (0.73 Mn/monomer), the Michaelis-Menten constant (Km) came to 10.1 ± 0.6 mM, the kcat was 0.62 ± 0.01 s⁻¹ and the kcat/Km was determined as 61 M⁻¹ s⁻¹.

Values taken from article PMC2801813 (Biochemistry, 2009).
